# Measured values reported in patent US20030114379A1.
# Molecular target: CCR1 (human) (UniProt P32246)
# Assay: cell-based or functional assay
# CCR1 (human), sequence (P32246 whole entry): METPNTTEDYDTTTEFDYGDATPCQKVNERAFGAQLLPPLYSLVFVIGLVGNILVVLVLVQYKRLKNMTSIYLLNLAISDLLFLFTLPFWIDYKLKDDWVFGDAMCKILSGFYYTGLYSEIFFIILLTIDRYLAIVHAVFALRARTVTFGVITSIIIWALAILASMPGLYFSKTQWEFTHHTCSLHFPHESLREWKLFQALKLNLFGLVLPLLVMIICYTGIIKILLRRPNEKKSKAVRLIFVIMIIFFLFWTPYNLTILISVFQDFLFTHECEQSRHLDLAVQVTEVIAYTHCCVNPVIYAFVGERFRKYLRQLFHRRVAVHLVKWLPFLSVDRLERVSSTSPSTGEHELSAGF
substance,measurement,value
MPIF-1 wild type (mature MPIF-1 secreted from a baculovirus expression system) (from UniProt P55773 22-120) (ligand),Ca2+ mobilization (ng/mL): minimum concentration required to mobilize calcium in human monocytes and/or THP-1 cells; MPIF-1/HG00300-B5,1000 ng/mL
